Reference: US20160194394A1 (GOVERNING COUNCIL OF THE UNIVERSITY OF TORONTO, published 2016)
Substitutions are numbered along the chain they refer to. Where two headings read alike, the source gives them in different places.

B1: Fab H1 (Fab)
chain 1: EVQLVESGGGLVQPGGSLRLSCAASGFNISSSYIHWVRQAPGKGLEWVAYIYSSYGSTYYADSVKGRFTISADTSKNTAYLQMNSLRAEDTAVYYCARASWYALDYWGQGTLVTVSSASTKGPSVFPLAPSSKSTSGGTAALGCLVKDYFPEPVTVSWNSGALTSGVHTFPAVLQSSGLYSLSSVVTVPSSSLGTQTYICNVNHKPSNTKVDKKVEPKSC
chain 2: DIQMTQSPSSLSASVGDRVTITCRASQSVSSAVAWYQQKPGKAPKLLIYSASSLYSGVPSRFSGSRSGTDFTLTISSLQPEDFATYYCQQYWYGVAPITFGQGTKVEIKRTVAAPSVFIFPPSDSQLKSGTASVVCLLNNFYPREAKVQWKVDNALQSGNSQESVTEQDSKDSTYSLSSTLTLSKADYEKHKVYACEVTHQGLSSPVTKSFNRGECGGS
B2: Fab E4 (Fab)
chain 1: EVQLVESGGGLVQPGGSLRLSCAASGFNLSYYSMHWVRQAPGKGLEWVASIYPSYGYTYYADSVKGRFTISADTSKNTAYLQMNSLRAEDTAVYYCARPSPGSYHGMDYWGQGTLVTVSSASTKGPSVFPLAPSSKSTSGGTAALGCLVKDYFPEPVTVSWNSGALTSGVHTFPAVLQSSGLYSLSSVVTVPSSSLGTQTYICNVNHKPSNTKVDKKVEPKSC
chain 2: DIQMTQSPSSLSASVGDRVTITCRASQSVSSAVAWYQQKPGKAPKLLIYSASSLYSGVPSRFSGSRSGTDFTLTISSLQPEDFATYYCQQSSYSLITFGQGTKVEIKRTVAAPSVFIFPPSDSQLKSGTASVVCLLNNFYPREAKVQWKVDNALQSGNSQESVTEQDSKDSTYSLSSTLTLSKADYEKHKVYACEVTHQGLSSPVTKSFNRGECGGS
B3: IgG D10 (antibody, V domains shown)
VL: DIQMTQSPSSLSASVGDRVTITCRASQSVSSAVAWYQQKPGKAPKLLIYSASSLYSGVPSRFSGSRSGTDFTLTISSLQPEDFATYYCQQYWAPITFGQGTKVEIK
VH: EVQLVESGGGLVQPGGSLRLSCAASGFNIYYYYMHWVRQAPGKGLEWVASIYSYSGSTYYADSVKGRFTISADTSKNTAYLQMNSLRAEDTAVYYCARYASYVGYYPWALDYWGQGTLVTVSS
notes: Fab converted into full-length IgG1, made in 293F cells
B4: IgG E8 (antibody, V domains shown)
VH: EVQLVESGGGLVQPGGSLRLSCAASGFNIYSSYIHWVRQAPGKGLEWVAYIYSYSGYTYYADSVKGRFTISADTSKNTAYLQMNSLRAEDTAVYYCARWYHPYWYASAIDYWGQGTLVTVSS
VL: DIQMTQSPSSLSASVGDRVTITCRASQSVSSAVAWYQQKPGKAPKLLIYSASSLYSGVPSRFSGSRSGTDFTLTISSLQPEDFATYYCQQVSGGGGLITFGQGTKVEIK
B5: IgG G6 (antibody, V domains shown)
VL: B3 VL with W92Y, A93S, P94L, I95F
VH: EVQLVESGGGLVQPGGSLRLSCAASGFNIYYYSMHWVRQAPGKGLEWVAYISPSYGYTYYADSVKGRFTISADTSKNTAYLQMNSLRAEDTAVYYCARGYFYSWGGMDYWGQGTLVTVSS
notes: as for B3

What was measured:
[1] = target: T1, recombinant Frizzled receptor 7 (FZD7) cysteine-rich domain (CRD) fused to the Fc region of human IgG (human, UniProt O75084 33-185); assay: SPR
[2] = target: T1, recombinant Frizzled receptor 7 (FZD7) …; assay: ELISA, 10ug/ml (200nM) Fab [cont'd]
In short: (§1)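 Plates coated with 2 ug/ml FZD7-Fc or Fc protein were probed with bacterially expressed purified Fabs for 1 h at room temperature in 0.5% BSA/0.05% Tween20/PBS. Bound Fab detected with anti-FLAG-HRP for 45 min, developed with TMB and acid stop, and read as absorbance at 450 nm; n.t. = not tested.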

[3] = target: T1, recombinant Frizzled receptor 7 (FZD7) …; assay: competitive ELISA, detected phage-Fab H3
[4] = target: T2, FZD7 receptor expressed on cells (full-length) (UniProt O75084 33-574, limits assumed); assay: flow cytometry, 200 nM Fab, FZD7 over-expression line (MDA MB 231) [cont'd]
T2 construct: whole, on cells; MDA MB 231 cells may carry other Frizzled receptors too; also called full-length FZD7 receptor; endogenous receptor on MDA MB 231 cells
In short: (§2)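 EDTA-harvested MDA MB 231 cells, either FZD7-overexpressing or with endogenous receptor, were blocked in 2% FBS/PBS and stained with Fab for 30 min on ice. Detection used anti-F(ab′)₂-APC (1:1000, 15 min on ice), then 1% paraformaldehyde fixation and flow cytometry. Values are percent of cells in positive gates.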

human Fzd1-Fc = target: T3, human Fzd1-Fc; assay: SPR
T3 construct: also called FZD1 ECD; Fzd1 CRD-Fc fusion protein (R&D systems); not shown: exact vendor limits of the CRD construct
T3 sequence (chain, as listed by the source limits assumed): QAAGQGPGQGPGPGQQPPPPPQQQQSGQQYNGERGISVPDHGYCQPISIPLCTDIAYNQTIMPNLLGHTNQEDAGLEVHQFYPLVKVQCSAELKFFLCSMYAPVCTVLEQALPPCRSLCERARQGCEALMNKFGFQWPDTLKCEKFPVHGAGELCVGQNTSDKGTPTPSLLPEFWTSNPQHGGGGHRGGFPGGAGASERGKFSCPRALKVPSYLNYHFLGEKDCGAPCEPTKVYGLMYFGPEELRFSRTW

[5] = target: T1, recombinant Frizzled receptor 7 (FZD7) …; assay: SPR; remark: listed apart in the source
mouse Fzd2-Fc = target: T4, mouse Fzd2-Fc; assay: SPR
T4 construct: also called mFZD2 ECD; Fzd2 CRD-Fc fusion protein (R&D systems); not shown: exact vendor limits of the CRD construct
T4 sequence (chain, as listed by the source limits assumed): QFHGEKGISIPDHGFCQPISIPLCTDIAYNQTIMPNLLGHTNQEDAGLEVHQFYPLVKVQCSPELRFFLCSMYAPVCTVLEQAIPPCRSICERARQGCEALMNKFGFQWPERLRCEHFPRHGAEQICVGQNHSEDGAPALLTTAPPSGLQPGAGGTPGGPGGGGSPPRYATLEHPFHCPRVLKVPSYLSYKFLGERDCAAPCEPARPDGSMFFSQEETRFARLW

[6] = target: T1, recombinant Frizzled receptor 7 (FZD7) …; assay: competitive ELISA, detected phage-Fab E4
[7] = target: T1, recombinant Frizzled receptor 7 (FZD7) …; assay: competitive ELISA, detected phage-Fab G6
[8] = target: T1, recombinant Frizzled receptor 7 (FZD7) …; assay: competitive ELISA, detected phage-Fab D10
[9] = target: T1, recombinant Frizzled receptor 7 (FZD7) …; assay: competitive ELISA, detected phage-Fab G2
[10] = target: T1, recombinant Frizzled receptor 7 (FZD7) …; assay: competitive ELISA, detected phage-Fab A1
[11] = target: T1, recombinant Frizzled receptor 7 (FZD7) …; assay: competitive ELISA, detected phage-Fab H10
[12] = target: T1, recombinant Frizzled receptor 7 (FZD7) …; assay: ELISA, 1ug/ml (20nM) Fab [cont'd]
In short: as §1

[13] = target: T1, recombinant Frizzled receptor 7 (FZD7) …; assay: competitive ELISA, detected phage-Fab H1
[14] = target: T1, recombinant Frizzled receptor 7 (FZD7) …; assay: competitive ELISA, detected phage-Fab E8
[15] = target: T2, FZD7 receptor expressed on cells …; assay: flow cytometry, 200 nM Fab, MDA MB 231 [cont'd]
In short: as §2

[16] = target: T2, FZD7 receptor expressed on cells …; assay: cell-based or functional assay
human Fzd8-Fc = target: T5, human Fzd8-Fc; assay: SPR
T5 construct: also called FZD8 ECD; Fzd8 CRD-Fc fusion protein (R&D systems); not shown: exact vendor limits of the CRD construct
T5 chain: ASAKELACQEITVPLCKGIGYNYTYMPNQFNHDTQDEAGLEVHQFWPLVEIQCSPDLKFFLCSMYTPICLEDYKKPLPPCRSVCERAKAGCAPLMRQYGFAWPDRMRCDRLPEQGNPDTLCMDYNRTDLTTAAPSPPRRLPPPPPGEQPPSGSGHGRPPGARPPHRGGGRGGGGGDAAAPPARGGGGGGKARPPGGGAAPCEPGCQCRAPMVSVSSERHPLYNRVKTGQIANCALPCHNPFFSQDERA

human Fzd5-Fc = target: T6, human Fzd5-Fc; assay: SPR
T6 construct: also called FZD5 ECD; Fzd5 CRD-Fc fusion protein (R&D systems); not shown: exact vendor limits of the CRD construct
T6 chain: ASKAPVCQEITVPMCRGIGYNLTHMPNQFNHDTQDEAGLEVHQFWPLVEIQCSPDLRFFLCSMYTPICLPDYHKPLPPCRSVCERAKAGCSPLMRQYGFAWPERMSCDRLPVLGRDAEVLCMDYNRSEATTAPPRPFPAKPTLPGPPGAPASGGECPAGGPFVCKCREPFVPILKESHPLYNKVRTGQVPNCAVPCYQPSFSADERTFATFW

[17] = target: recombinant Frizzled receptor 7 (FZD7) cysteine-rich domain (CRD) fused to the Fc region of human IgG (human, UniProt O75084 33-185); assay: SPR; remark: listed apart in the source
[18] = target: T2, FZD7 receptor expressed on cells …; assay: cell-based or functional assay; remark: listed apart in the source

Kd [1] [nM]	koff [1] [s⁻¹]	kon [1] [M⁻¹ s⁻¹]	OD 450 [2]	% of Fab phage in presence of 750 nM Fab [3] [%]	% population within the positive gate [4] [%]	Kd (human Fzd1-Fc) [nM]	Kd [5] [nM]	Kd (mouse Fzd2-Fc) [nM]	% of Fab phage in presence of 750 nM Fab [6] [%]	% of Fab phage in presence of 750 nM Fab [7] [%]	% of Fab phage in presence of 750 nM Fab [8] [%]	% of Fab phage in presence of 750 nM Fab [9] [%]	% of Fab phage in presence of 750 nM Fab [10] [%]	% of Fab phage in presence of 750 nM Fab [11] [%]	OD 450 [12]	% of Fab phage in presence of 750 nM Fab [13] [%]	% of Fab phage in presence of 750 nM Fab [14] [%]	% population within the positive gate [15] [%]	decrease in Wnt 3a-induced transcriptional activity (TOP-FLASH luciferase reporter in MDA MB 231 cells, 400 nM Fab) [16] [%]	other results	Binder
0.537	0.000457	852000	3.19	18.3	94.7	0.64	0.54	0.57	12	10.4	4.7	4.5	4.5	4.3	3.2	8.5	6.7	99	> 70	–	B1
0.422	0.000803	1.9e+06	3.27	10.5	93.4	0.33	0.42	0.65	5.1	7.4	6.1	4.6	6.5	3.2	3.24	21.9	5.9	98.8	> 70	Kd (human Fzd8-Fc): 0.88 nM; Kd (human Fzd5-Fc): 1.43 nM	B2
–	–	–	–	–	–	–	–	–	–	–	–	–	–	–	–	–	–	–	–	Kd [17]: 1.45 nM; IC50, Wnt3a-induced Top Flash reporter (% ligand mediated) [18]: 123 nM	B3
–	–	–	–	–	–	–	–	–	–	–	–	–	–	–	–	–	–	–	–	IC50, Wnt3a-induced Top Flash reporter (% ligand mediated) [18]: 106 nM	B4
–	–	–	–	–	–	–	–	–	–	–	–	–	–	–	–	–	–	–	–	Kd [17]: 0.3 nM	B5
